Assay [1] has as its target human GPC3 on Jurkat E6.1 cells (human) (UniProt P51654). Put plainly: FACS; share of events in the FL1-A+ gate (from 10^5); beside Irrelavant IgG C10 6.49; cells by legend: Jurkat E6.1 with human GPC3, not printed on the panel [23D]. In general terms: Flow cytometry measures light scatter and fluorescence of single cells or particles in a stream.
The target is the same in assay [2]. The assay is described as follows: FACS; share of events in the FL1-A+ gate (from 10^5); secondary only 0.21; cells by legend: Jurkat E6.1 with human GPC3, not printed on the panel [23B].
For assay [3] the target is unchanged. The assay is described as follows: FACS; share of events in the FL1-A+ gate (from 10^5); cells by legend: Jurkat E6.1 with human GPC3, not printed on the panel [23C].
Assay [4] has as its target T1, human GPC3 recombinant protein (human, UniProt P51654 25-559).
T1 construct: also called huGPC3; Human GPC3 protein
The assay is described as follows: SPR (Biacore) off-rate screen, periplasmic extract over human GPC3 on CM5; R0 40.1. As for the experimental part: (§1) Human GPC3 protein in acetate buffer, pH 5.0, was immobilized in a sensor chip CM5 (GE Healthcare; Cat. Nr. BR-1005-30; Lot. Nr.10245232) and successful immobilization was confirmed by using a commercially available human GPC3 antibody (R&D cat. nr. MAB2119) and the anti-GPC3-VHH-Fc (both at 10 μg/mL). Periplasmic extracts from the MP were diluted in Biacore Buffer (0.01 M HEPES pH 7.4, 0.15 M NaCl, 3 mM EDTA, 0.05% P20) and injected over 2 minutes at 30 μL/min. 10 μl of 10 mM NaOH/1M NaCl were injected between samples and off-rates were measured over 5 minutes. Off-rate ([…]) were calculated using BIACORE software 1:1 interaction Langmuir binding model.
Background: In SPR one partner is held on a chip, and binding of the other changes the refractive index at the surface.

Assay [5] addresses T1, human GPC3 recombinant protein. The assay is described as follows: SPR (Biacore), VHH-His over human GPC3 on CM5; fit 131.7 - 17.34 nM; Rmax 11.5 RU; Chi2 0.281. As for the experimental part: (§2) Affinities of the 19 VHH-His tagged domains were then determined by BiaCore assay. Human GPC3 protein (Sino biological cat. nr. 10088-H08H-500) was immobilized on CM5 sensor chip (GE Healthcare) as antigen. Purified VHH-His tagged domains were diluted in BiaCore buffer (0.01 M HEPES pH 7.4, 0.15 M NaCl, 3 mM EDTA, 0.05% P20) to 500 nM and injected over 2 minutes at […] followed by a half dilution series to 7.8 nM. 10 μl of 10 mM NaOH/1M NaCl were injected between samples and then off-rate wash was 5 minutes.

For assay [6] the target is unchanged. Put plainly: SPR (Biacore), summary table; Chi2 0.281; Profile 'Good'.
Assay [7] has the same target. Put plainly: SPR (Biacore) off-rate screen, periplasmic extract over human GPC3 on CM5; R0 61.1. As for the experimental part:
as §1

Assay [8] shares this target. Put plainly: SPR (Biacore), summary table; Chi2 0.173; Profile 'L.D.'; asterisk: values not accurately calculated by Biacore software. As for the experimental part:
as §2

Assay [9] has the same target. The assay is described as follows: SPR (Biacore), VHH-His over human GPC3 on CM5; fit 131.7 - 17.34 nM; Rmax 1.72 RU; Chi2 0.173; asterisk: values not accurately calculated by Biacore software. As for the experimental part:
as §2

Assay [10] shares this target. The assay is described as follows: SPR (Biacore), VHH-His over human GPC3 on CM5; fit 131.7 - 17.34 nM; Rmax 1.72 RU; Chi2 0.173. As for the experimental part: as §2
Assay [11] shares this target. The assay is described as follows: SPR (Biacore) off-rate screen, periplasmic extract over human GPC3 on CM5; R0 59.0. The method, then:
as §1

Assay [12] deals with T2, human GPC3 on HepG2 cells (human, UniProt P51654 25-554).
T2 construct: whole, on cells
T2 sequence (P51654 25-554 limits assumed): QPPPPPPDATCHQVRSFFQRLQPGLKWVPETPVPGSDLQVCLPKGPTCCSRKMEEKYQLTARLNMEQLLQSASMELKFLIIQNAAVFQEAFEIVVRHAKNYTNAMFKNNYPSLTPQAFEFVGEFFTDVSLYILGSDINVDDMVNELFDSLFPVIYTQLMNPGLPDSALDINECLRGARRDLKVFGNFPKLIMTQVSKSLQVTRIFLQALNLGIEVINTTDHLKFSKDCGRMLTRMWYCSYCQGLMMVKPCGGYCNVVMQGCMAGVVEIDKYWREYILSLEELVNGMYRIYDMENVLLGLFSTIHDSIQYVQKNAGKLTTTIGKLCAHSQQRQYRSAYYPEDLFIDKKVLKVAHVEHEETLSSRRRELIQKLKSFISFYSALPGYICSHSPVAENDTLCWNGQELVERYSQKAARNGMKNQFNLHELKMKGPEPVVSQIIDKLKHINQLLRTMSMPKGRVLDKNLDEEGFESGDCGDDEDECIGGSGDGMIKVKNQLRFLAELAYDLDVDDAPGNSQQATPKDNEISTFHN
Put plainly: FACS, phage-displayed clone on HepG2, well H1; same clone on A-431 (no GPC3): 1.36%.

Assay [13] addresses T2, human GPC3 on HepG2 cells. The assay is described as follows: FACS, periplasmic extract 1:5 + anti-c-myc + GAM-APC on HepG2, well H1; same on A-431: 759.64.
For assay [14], the target named is T2, human GPC3 on HepG2 cells. Put plainly: FACS, phage-displayed clone on HepG2, well H1; same clone on A-431 (no GPC3): 1059.31.
Assay [15] addresses T1, human GPC3 recombinant protein. Put plainly: SPR (Biacore), summary table; Chi2 0.281; Profile 'Medium'; FIG. 18 prints 2.97E-09. As for the experimental part: as §2
The target of assay [16] is human GPC3 on Jurkat E6.1 cells (human) (UniProt P51654). Put plainly: FACS, 1 µg/ml VH + anti-His-FITC; share of events in the FL1-A+ gate (from 10^5); secondary only 0.21 [23F].
human GPC3 on Jurkat E6.1 cells (human), sequence (P51654 25-554 limits assumed): as above
Assay [17] concerns the target T2, human GPC3 on HepG2 cells. Put plainly: FACS, periplasmic extract 1:5 + anti-c-myc + GAM-APC on HepG2, well H1; same on A-431: 0.24%.
Assay [18] concerns the target T1, human GPC3 recombinant protein. Put plainly: SPR (Biacore), VHH-His over human GPC3 on CM5; fit 250 - 7.8 nM; Rmax 8.15 RU; Chi2 0.281. As for the experimental part:
as §2

The target of assay [19] is T2, human GPC3 on HepG2 cells. The assay is described as follows: FACS, phage-displayed clone on HepG2, well A1; same clone on A-431 (no GPC3): 1028.96.
The target in assay [20] is T1, human GPC3 recombinant protein. Put plainly: SPR (Biacore), summary table; Chi2 0.926; Profile 'L.D.' (less desirable). The method, then:
as §2

Assay [21] has as its target T2, human GPC3 on HepG2 cells. Put plainly: FACS, phage-displayed clone on HepG2, well A1; same clone on A-431 (no GPC3): 0.95%.
The target in assay [22] is T1, human GPC3 recombinant protein. The assay is described as follows: SPR (Biacore) off-rate screen, periplasmic extract over human GPC3 on CM5; R0 13.6; asterisk not explained on the sheet. As for the experimental part:
as §1

In assay [23] the target is T2, human GPC3 on HepG2 cells. The assay is described as follows: FACS, periplasmic extract 1:5 + anti-c-myc + GAM-APC on HepG2, well A1; same on A-431: 0.10%.
The target in assay [24] is T2, human GPC3 on HepG2 cells. The assay is described as follows: FACS, periplasmic extract 1:5 + anti-c-myc + GAM-APC on HepG2, well A1; same on A-431: 853.36.
The target in assay [25] is T1, human GPC3 recombinant protein. Put plainly: SPR (Biacore), VHH-His over human GPC3 on CM5; fit 125 - 7.8 nM; Rmax 16.8 RU; Chi2 0.926. As for the experimental part: as §2
For assay [26] the target is unchanged. The assay is described as follows: SPR (Biacore), VHH-His over human GPC3 on CM5; fit 131.7 - 17.34 nM; Rmax 1.51 RU; Chi2 0.0556. The method, then:
as §2

Assay [27] shares this target. Put plainly: SPR (Biacore), VHH-His over human GPC3 on CM5; fit 131.7 - 17.34 nM; Rmax 1.51 RU; Chi2 0.0556; asterisk: values not accurately calculated by Biacore software. The method, then:
as §2

Assay [28] has the same target. The assay is described as follows: SPR (Biacore), summary table; Chi2 0.0556; Profile 'L.D.'; asterisk: values not accurately calculated by Biacore software. As for the experimental part:
as §2

T1 sequence (P51654 25-559 limits assumed): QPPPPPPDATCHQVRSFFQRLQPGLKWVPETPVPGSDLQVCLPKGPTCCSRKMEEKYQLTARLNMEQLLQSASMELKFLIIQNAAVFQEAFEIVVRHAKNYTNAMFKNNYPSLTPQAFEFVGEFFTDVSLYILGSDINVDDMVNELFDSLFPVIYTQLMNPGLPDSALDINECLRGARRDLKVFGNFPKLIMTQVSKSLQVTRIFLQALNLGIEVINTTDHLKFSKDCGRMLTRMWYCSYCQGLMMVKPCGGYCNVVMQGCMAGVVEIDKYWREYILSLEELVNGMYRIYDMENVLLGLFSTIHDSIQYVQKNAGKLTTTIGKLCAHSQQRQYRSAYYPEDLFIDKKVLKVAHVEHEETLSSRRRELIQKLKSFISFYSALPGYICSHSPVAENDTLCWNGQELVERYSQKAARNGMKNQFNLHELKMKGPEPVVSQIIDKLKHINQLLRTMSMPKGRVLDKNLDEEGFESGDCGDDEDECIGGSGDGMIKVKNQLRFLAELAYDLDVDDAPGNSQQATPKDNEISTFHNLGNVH

In the case of HN3-Fc (Fc fusion), the figures for the FL1-A+ in assay [1] and in [2] were 74.9 and 47.1, respectively.
The molecule Irrelavant IgG C10 (antibody) displayed an FL1-A+ in assay [3] of 6.49.

B1: VH23 (VHH)
VHH: EVQLVESGGGLVQPGGSLRLSCAASGFTFSSYAMSWVRQAPGKESEWVSSISGGGSSTYYADSLKGRFTISRDNSKNTLYLQMNSLRAEDTAVYYCSKDPRFGEPPFDYWGQGTLVTVSS
notes: also called VHH23
Regarding B1, the koff (in general, a measure of how fast the partners let go of each other) in assay [4] stood at 0.00347 s⁻¹.

B2: anti-GPC3 VHH-His tagged domain VHH4 (VHH)
VHH: QVQLVESGGGLVQPGGSLRLSCAASGFTFSSYAMSWVRQAPGKESEWVSSISGSGSSTYYADSLKGRFTISRDNSKNTLYLQMNSLRAEDTAVYYCSKDPRFGEPPFDYWGQGTTVTVSS
notes: Produced from a mammalian expression vector as a His fusion; also called VH4; not shown: His tag
Take B2: in assay [5], the Ka came to 1.97e+08 M⁻¹; the Kd (as a rule, the concentration at which binding is half-saturated) came out at 5.07 nM; the koff came out at 0.00237 s⁻¹; the kon – broadly, the second-order rate constant of association – was 466000 M⁻¹ s⁻¹. Moreover, the Kd in assay [6] worked out at 5.07 nM. Also, the koff in assay [7] stood at 0.00236 s⁻¹.

B3: anti-GPC3 VHH-His tagged domain VHH18 (VHH)
VHH: QVQLVESGGGLVQPGGSLRLSCAASGFTFSSYAMSWVRQAPGKEPEWVSSISGGGSSTYYADSLKGRFTISRDNSKNTLYLQMNSLRAEDTAVYYCSRDPRLGEPPFDYWGQGTTVTVSS
notes: Produced from a mammalian expression vector as a His fusion; not shown: His tag
B3: in [8], the dissociation constant Kd is approximately 4.88 nM. Further, in [9], the Ka was approximately 2.05e+08 M⁻¹ and the Kd was approximately 4.88 nM. In assay [10], the koff came out at 0.00249 s⁻¹ and the kon is 511000 M⁻¹ s⁻¹.

B4: anti-GPC3 VHH-His tagged domain VHH11 (VHH)
VHH: EVQLVESGGGLVQPGGSLRLSCAASGFTFSSYAMSWVRQAPGKEPEWVSSISGGGSSTYYADSLKGRFTISRDNSKNTLYLQMNSLRAEDTAVYYCSRDPRFREPPFDYWGQGTLVTVSS
notes: as for B3
B4: the koff in [11] came to 0.00325 s⁻¹; in assay [18], 0.00261 s⁻¹. The values for the % of Binding in [12] and in [17] were 66.2% and 0.57%, respectively. Also, the Mean FL4-A in assay [13] was 842. Moreover, the Mean FL2-A in assay [14] came out at 22600. The results for the Kd in assay [15] and in assay [18] were 2.19 nM and 2.97 nM, respectively. Moreover, the FL1-A+ in assay [16] was 0.78. In assay [18], the Ka is 3.37e+08 M⁻¹. For the same molecule, in assay [18], the kon worked out at 880000 M⁻¹ s⁻¹.

B5: anti-GPC3 VHH-His tagged domain VHH14 (VHH)
VHH: QVQLVESGGGLVQPGGSLRLSCAASGFNFSNYWMHWVRQAPGKELVWVSRINSDGSSTSYADPVKGRFTISRDNANNMLYLQMNSLRAEDTAMYYCVRVALGFDFWGQGTLVTVSS
notes: as for B3
For the molecule B5, the Mean FL2-A in [19] was determined as 2720. Moreover, the Kd in assay [20] turned out to be 66.2 nM. In assay [21], this molecule gave a % of Binding of 18.6%. For the same molecule, in assay [22], the koff was 0.00728 s⁻¹. For the same molecule, the % of Binding in [23] was found to be 0.38%. Besides, in [24], the Mean FL4-A was 729. Further, in assay [25], the Ka came out at 1.51e+07 M⁻¹, the Kd was 66.2 nM, the dissociation rate constant (koff) amounted to 0.0216 s⁻¹ and the kon is 327000 M⁻¹ s⁻¹.

B6: anti-GPC3 VHH-His tagged domain VHH17 (VHH)
VHH: EVQLVESGGGLVQPGGSLRLSCAASGFTFSSYAMSWVRQAPGKGLEWVSAIYSGGSTYYADSVKGRFTISRDNSKNTLYLQMNSLRAEDTAVYYCARGDSSSSRFDYWGQGTLVTVSS
notes: as for B3
As for B6, in assay [26], the off-rate constant (koff) stood at 0.00119 s⁻¹ and the kon amounted to 222000 M⁻¹ s⁻¹. For the same molecule, in assay [27], the Ka was approximately 1.86e+08 M⁻¹ and the Kd was approximately 5.36 nM. Moreover, the Kd in [28] was approximately 5.36 nM.
